B1: Translocon at the outer membrane of chloroplasts 64 (Pisum sativum (Garden pea)), Q9MUK5 (parent)
chain: MKSMASPSSQIWVILGLGLAGIYVLTRKLTQAVKEDFGAFLLKLKLLPPPPPAPPKAPHPLSSLNFAISDIFDIEGHVSTFGHPEWARTHEPASSTASAVSALVESGATCIGTTVVDELAYGISGENKHFGTPTNPAVPNRVPGGSSSGAAVAVAANFVDFSLGVDTSGGVRVPAGFCGILGFRPSHGAVSHVGIIPVSTSLDTVGWFAKDPDVLRRVGHILLQAPFVMQRNPRQIIIADDCFQHLNVPLDRTSQVVIKATEKLFGKQVLKHINFEDYISSKVSSLKACSIQKSNGVLKSSSLKLLANVMQSLQRHEFEHTHSEWMSIVKPDLHPAVSAQLHEKFEVSELEIENSKSVRSELRVAVNSLLKDEGVLVIPTVADPPPKLGGKEFLSHDYQSRALSLLSIASISGCCQVTVPLGFFDKNPVSVSLIARHGGDRFLLDTLKTMYTVLQEQADIAAPSKSSKSVVSKEQSAEISKEKGNQAYKDKQWQKAIGFYTEAIKLCGNNATYYSNRAQAYLELGSYLQAEEDCTTAISFDKKNVKAYFRRGTAREMLGYYKEAIDDFKYALVLEPTNKRAASSAERLRKLFQ

Variants of: B1
Conditions: with hs704_arath HSP70-4, Q9LHA8

effect of a mutation on the interaction | Variant
decreasing interaction | R550A

Reference: IntAct's records for PubMed 16619024
